Experimental data from patent US20140212423A1 (AbbVie / Abbott, published 2014).

Experiments:
[1] = target: Repulsive guidance molecule A; assay: cell-based or functional assay
[2] = target: T1, mouse Transferrin Receptor overexpressed on Hek 293 cells (mouse, UniProt Q62351 1-763); assay: 293/mTFR cell-based assay
T1 construct: whole, on cells; also called Hek293/mTfR; 293/mTFR
Description: (§1) Meso-scale Discovery (MSD) Electrochemiluminescesnce (ECL) assays to screen for antibodies or DVDs that bind a desired target antigen expressed on the cell surface were performed as follows: Hek 293 cells overexpressing mouse Transferin Receptor were added onto MSD 96-well plates (MSD Cat# L11 XB-3, lot#2290-EA) which were blocked using blocking buffer (30% FBS Serum (Hyclone) in PBS) at 37° C. for 1 hr. After incubating at RT for 30 min with mild agitation, plates were washed with DPBS 3 times and Abs/DVDs (10,000 ng/ml) were added. After incubating for 1 hr at RT, plates were washed 3 times with DPBS and 25 ul of Goat anti human Sulfo TAG (MSD Cat# R32AC-, Lot# W001162) at 1 μg/ml is added. Following a 1 h incubation at RT for 1 hr, plates are washed and MSD read buffer is added before reading on MSD SECTOR Imager 6000. EC50 values are obtained using Xlfit4 software package

[3] = target: T1, mouse Transferrin Receptor …; assay: cell-based MSD-ECL binding on Hek293 cells overexpressing mouse TfR
Description: as §1

T1 sequence (Q62351 whole entry): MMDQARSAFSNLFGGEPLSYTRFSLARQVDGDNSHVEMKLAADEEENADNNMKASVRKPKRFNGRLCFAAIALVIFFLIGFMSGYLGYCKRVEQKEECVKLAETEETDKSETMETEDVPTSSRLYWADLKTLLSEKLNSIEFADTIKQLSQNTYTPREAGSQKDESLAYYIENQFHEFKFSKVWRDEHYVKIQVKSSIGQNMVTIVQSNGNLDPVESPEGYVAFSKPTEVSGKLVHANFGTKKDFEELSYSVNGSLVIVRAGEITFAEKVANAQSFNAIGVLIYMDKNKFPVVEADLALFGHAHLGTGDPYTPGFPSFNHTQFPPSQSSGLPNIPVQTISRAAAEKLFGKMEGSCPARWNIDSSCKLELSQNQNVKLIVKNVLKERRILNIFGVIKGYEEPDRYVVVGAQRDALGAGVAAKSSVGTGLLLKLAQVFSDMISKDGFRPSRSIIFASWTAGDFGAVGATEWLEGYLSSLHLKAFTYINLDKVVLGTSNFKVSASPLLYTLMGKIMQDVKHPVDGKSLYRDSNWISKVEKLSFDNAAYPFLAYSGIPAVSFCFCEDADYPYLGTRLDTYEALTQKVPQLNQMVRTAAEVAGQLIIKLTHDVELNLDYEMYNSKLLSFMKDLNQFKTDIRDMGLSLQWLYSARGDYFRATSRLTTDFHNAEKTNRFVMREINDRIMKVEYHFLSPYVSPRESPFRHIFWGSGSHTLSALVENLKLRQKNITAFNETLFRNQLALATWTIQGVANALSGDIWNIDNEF

BMP Assay (EC50, nM) [1] [nM] | EC50 [2] [nM] | EC50 [3] [nM] | Binder
3.12 | 28.1 |  | TfR(AB405)-GS-RGMA(AE12-1) (bispecific antibody, DVD-Ig composed from its name; constant regions not assigned) VH: QVQLVQSGAEVKKPGASVKVSCKASGFTFSNYGMHWIRQAPGQGLEWIAMIYYDSSKMNYADTVKGRFTITRDNSTNTLYMELSSLRSEDTAVYYCAVPTSHYVVDVWGQGTTVTVSSGGGGSGGGGSEVQLVQSGAEVKKPGASVKVSCKASGYTFTSHGISWVRQAPGQGLDWMGWISPYSGNTNYAQKLQGRVTMTTDTSTSTAYMELSSLRSEDTAVYYCARVGSGPYYYMDVWGQGTLVTVSS VL: EIVMTQSPATLSVSPGERATLSCQASQDIGNWLAWYQQKPGQSPRLLIYGATSLADGVPARFSGSRSGTEFTLTISSLQSEDFAVYYCLQAYNTPWTFGGGTKVEIKRGGSGGGGSGQSALTQPRSVSGSPGQSVTISCTGTSSSVGDSIYVSWYQQHPGKAPKLMLYDVTKRPSGVPDRFSGSKSGNTASLTISGLQAEDEADYYCCSYAGTDTLFGGGTKVTVLG
0.436 | 30.9 |  | RGMA(AE12-1)-SS-TfR(AB402) (bispecific antibody, DVD-Ig composed from its name; constant regions not assigned; not shown: short light-chain linker (code S) after a lambda VL) VH: EVQLVQSGAEVKKPGASVKVSCKASGYTFTSHGISWVRQAPGQGLDWMGWISPYSGNTNYAQKLQGRVTMTTDTSTSTAYMELSSLRSEDTAVYYCARVGSGPYYYMDVWGQGTLVTVSSASTKGPEVQLVESGGGLVQPGGSLRLSCAASGFTFSNYGMHWIRQAPGKGLEWIAMIYYDSSKMNYADTVKGRFTISRDNAKNSLYLQMNSLRAEDTAVYYCAVPTSHYVVDVWGQGTTVTVSS VL: QSALTQPRSVSGSPGQSVTISCTGTSSSVGDSIYVSWYQQHPGKAPKLMLYDVTKRPSGVPDRFSGSKSGNTASLTISGLQAEDEADYYCCSYAGTDTLFGGGTKVTVLGQPKAAPAIQMTQSPSSLSASVGDRVTITCQASQDIGNWLAWYQQKPGKSPKLLIYGATSLADGVPSRFSGSRSGTDFTLTISSLQPEDFATYYCLQAYNTPWTFGGGTKVEIKR
1.18 | 71 |  | RGMA(AE12-1)-SS-TfR(AB403) (bispecific antibody, DVD-Ig composed from its name; constant regions not assigned; not shown: short light-chain linker (code S) after a lambda VL) VH: EVQLVQSGAEVKKPGASVKVSCKASGYTFTSHGISWVRQAPGQGLDWMGWISPYSGNTNYAQKLQGRVTMTTDTSTSTAYMELSSLRSEDTAVYYCARVGSGPYYYMDVWGQGTLVTVSSASTKGPEVQLVESGGGLVQPGGSLRLSCAASGFTFSNYGMHWIRQAPGKGLEWIAMIYYDSSKMNYADTVKGRFTISRDNAKNSLYLQMNSLRAEDTAVYYCAVPTSHYVVDVWGQGTTVTVSS VL: QSALTQPRSVSGSPGQSVTISCTGTSSSVGDSIYVSWYQQHPGKAPKLMLYDVTKRPSGVPDRFSGSKSGNTASLTISGLQAEDEADYYCCSYAGTDTLFGGGTKVTVLGQPKAAPEIVMTQSPATLSVSPGERATLSCQASQDIGNWLAWYQQKPGQSPRLLIYGATSLADGVPARFSGSRSGTEFTLTISSLQSEDFAVYYCLQAYNTPWTFGGGTKVEIKR
 | 12 | 12 | DVD2359 (bispecific antibody, DVD-Ig, outer AB043 (APP), inner AB402 (TfR), HG-short/LK-short; dual variable regions only; constant regions not assigned; also called Aβ(3D6)-SS-AB402 DVD2359; Aβ(3D6)-SS-AB402 DVD-Ig 2359) VH: EVQLLESGGGLVQPGGSLRLSCAASGFTFSNYGMSWVRQAPGKGLEWVASIRSGGGRTYYSDNVKGRFTISRDNSKNTLYLQMNSLRAEDTAVYYCVRYDHYSGSSDYWGQGTLVTVSSASTKGPEVQLVESGGGLVQPGGSLRLSCAASGFTFSNYGMHWIRQAPGKGLEWIAMIYYDSSKMNYADTVKGRFTISRDNAKNSLYLQMNSLRAEDTAVYYCAVPTSHYVVDVWGQGTTVTVSS VL: DVVMTQSPLSLPVTPGEPASISCKSSQSLLDSDGKTYLNWLLQKPGQSPQRLIYLVSKLDSGVPDRFSGSGSGTDFTLKISRVEAEDVGVYYCWQGTHFPRTFGQGTKVEIKRTVAAPAIQMTQSPSSLSASVGDRVTITCQASQDIGNWLAWYQQKPGKSPKLLIYGATSLADGVPSRFSGSRSGTDFTLTISSLQPEDFATYYCLQAYNTPWTFGGGTKVEIKR
0.014 | 5.36 |  | RGMA(AE12-1)-GS-TfR(AB402) (bispecific antibody, DVD-Ig composed from its name; constant regions not assigned) VH: EVQLVQSGAEVKKPGASVKVSCKASGYTFTSHGISWVRQAPGQGLDWMGWISPYSGNTNYAQKLQGRVTMTTDTSTSTAYMELSSLRSEDTAVYYCARVGSGPYYYMDVWGQGTLVTVSSGGGGSGGGGSEVQLVESGGGLVQPGGSLRLSCAASGFTFSNYGMHWIRQAPGKGLEWIAMIYYDSSKMNYADTVKGRFTISRDNAKNSLYLQMNSLRAEDTAVYYCAVPTSHYVVDVWGQGTTVTVSS VL: QSALTQPRSVSGSPGQSVTISCTGTSSSVGDSIYVSWYQQHPGKAPKLMLYDVTKRPSGVPDRFSGSKSGNTASLTISGLQAEDEADYYCCSYAGTDTLFGGGTKVTVLGGGSGGGGSGAIQMTQSPSSLSASVGDRVTITCQASQDIGNWLAWYQQKPGKSPKLLIYGATSLADGVPSRFSGSRSGTDFTLTISSLQPEDFATYYCLQAYNTPWTFGGGTKVEIKR
< 0.025 | 4.3 |  | RGMA(AE12-1)-GS-TfR(AB403) (bispecific antibody, DVD-Ig composed from its name; constant regions not assigned; also called RGMA (AE12-1)-GS-AB403 DVD-Ig) VH: EVQLVQSGAEVKKPGASVKVSCKASGYTFTSHGISWVRQAPGQGLDWMGWISPYSGNTNYAQKLQGRVTMTTDTSTSTAYMELSSLRSEDTAVYYCARVGSGPYYYMDVWGQGTLVTVSSGGGGSGGGGSEVQLVESGGGLVQPGGSLRLSCAASGFTFSNYGMHWIRQAPGKGLEWIAMIYYDSSKMNYADTVKGRFTISRDNAKNSLYLQMNSLRAEDTAVYYCAVPTSHYVVDVWGQGTTVTVSS VL: QSALTQPRSVSGSPGQSVTISCTGTSSSVGDSIYVSWYQQHPGKAPKLMLYDVTKRPSGVPDRFSGSKSGNTASLTISGLQAEDEADYYCCSYAGTDTLFGGGTKVTVLGGGSGGGGSGEIVMTQSPATLSVSPGERATLSCQASQDIGNWLAWYQQKPGQSPRLLIYGATSLADGVPARFSGSRSGTEFTLTISSLQSEDFAVYYCLQAYNTPWTFGGGTKVEIKR
0.73 | 4.41 |  | TfR(AB405)-SL-RGMA(AE12-1) (bispecific antibody, DVD-Ig composed from its name; constant regions not assigned) VH: QVQLVQSGAEVKKPGASVKVSCKASGFTFSNYGMHWIRQAPGQGLEWIAMIYYDSSKMNYADTVKGRFTITRDNSTNTLYMELSSLRSEDTAVYYCAVPTSHYVVDVWGQGTTVTVSSASTKGPEVQLVQSGAEVKKPGASVKVSCKASGYTFTSHGISWVRQAPGQGLDWMGWISPYSGNTNYAQKLQGRVTMTTDTSTSTAYMELSSLRSEDTAVYYCARVGSGPYYYMDVWGQGTLVTVSS VL: EIVMTQSPATLSVSPGERATLSCQASQDIGNWLAWYQQKPGQSPRLLIYGATSLADGVPARFSGSRSGTEFTLTISSLQSEDFAVYYCLQAYNTPWTFGGGTKVEIKRTVAAPSVFIFPPQSALTQPRSVSGSPGQSVTISCTGTSSSVGDSIYVSWYQQHPGKAPKLMLYDVTKRPSGVPDRFSGSKSGNTASLTISGLQAEDEADYYCCSYAGTDTLFGGGTKVTVLG
0.701 | 4.44 |  | TfR(AB405)-LL-RGMA(AE12-1) (bispecific antibody) chain 1: QVQLVQSGAEVKKPGASVKVSCKASGFTFSNYGMHWIRQAPGQGLEWIAMIYYDSSKMNYADTVKGRFTITRDNSTNTLYMELSSLRSEDTAVYYCAVPTSHYVVDVWGQGTTVTVSSASTKGPSVFPLAPEVQLVQSGAEVKKPGASVKVSCKASGYTFTSHGISWVRQAPGQGLDWMGWISPYSGNTNYAQKLQGRVTMTTDTSTSTAYMELSSLRSEDTAVYYCARVGSGPYYYMDVWGQGTLVTVSS chain 2: EIVMTQSPATLSVSPGERATLSCQASQDIGNWLAWYQQKPGQSPRLLIYGATSLADGVPARFSGSRSGTEFTLTISSLQSEDFAVYYCLQAYNTPWTFGGGTKVEIKRTVAAPSVFIFPPQSALTQPRSVSGSPGQSVTISCTGTSSSVGDSIYVSWYQQHPGKAPKLMLYDVTKRPSGVPDRFSGSKSGNTASLTISGLQAEDEADYYCCSYAGTDTLFGGGTKVTVLG
 | 1.98 |  | Aβ(3D6)-GS-AB403 (bispecific antibody, DVD-Ig composed from its name; Aβ(3D6) = AB043 read from DVD2359; constant regions not assigned; also called Aβ(3D6)-GS-AB403 DVD-Ig) VH: EVQLLESGGGLVQPGGSLRLSCAASGFTFSNYGMSWVRQAPGKGLEWVASIRSGGGRTYYSDNVKGRFTISRDNSKNTLYLQMNSLRAEDTAVYYCVRYDHYSGSSDYWGQGTLVTVSSGGGGSGGGGSEVQLVESGGGLVQPGGSLRLSCAASGFTFSNYGMHWIRQAPGKGLEWIAMIYYDSSKMNYADTVKGRFTISRDNAKNSLYLQMNSLRAEDTAVYYCAVPTSHYVVDVWGQGTTVTVSS VL: DVVMTQSPLSLPVTPGEPASISCKSSQSLLDSDGKTYLNWLLQKPGQSPQRLIYLVSKLDSGVPDRFSGSGSGTDFTLKISRVEAEDVGVYYCWQGTHFPRTFGQGTKVEIKRGGSGGGGSGEIVMTQSPATLSVSPGERATLSCQASQDIGNWLAWYQQKPGQSPRLLIYGATSLADGVPARFSGSRSGTEFTLTISSLQSEDFAVYYCLQAYNTPWTFGGGTKVEIKR
13.2 | 3.61 |  | TfR(AB404)-LL-RGMA(AE12-1) (bispecific antibody) chain 1: QVQLVQSGAEVKKPGASVKVSCKASGFTFSNYGMHWIRQAPGQGLEWIAMIYYDSSKMNYADTVKGRFTITRDNSTNTLYMELSSLRSEDTAVYYCAVPTSHYVVDVWGQGTTVTVSSASTKGPSVFPLAPEVQLVQSGAEVKKPGASVKVSCKASGYTFTSHGISWVRQAPGQGLDWMGWISPYSGNTNYAQKLQGRVTMTTDTSTSTAYMELSSLRSEDTAVYYCARVGSGPYYYMDVWGQGTLVTVSS chain 2: AIQMTQSPSSLSASVGDRVTITCQASQDIGNWLAWYQQKPGKSPKLLIYGATSLADGVPSRFSGSRSGTDFTLTISSLQPEDFATYYCLQAYNTPWTFGGGTKVEIKRTVAAPSVFIFPPQSALTQPRSVSGSPGQSVTISCTGTSSSVGDSIYVSWYQQHPGKAPKLMLYDVTKRPSGVPDRFSGSKSGNTASLTISGLQAEDEADYYCCSYAGTDTLFGGGTKVTVLG
0.25 |  |  | RGMA (AE12-1) (antibody, V domains shown) VH: EVQLVQSGAEVKKPGASVKVSCKASGYTFTSHGISWVRQAPGQGLDWMGWISPYSGNTNYAQKLQGRVTMTTDTSTSTAYMELSSLRSEDTAVYYCARVGSGPYYYMDVWGQGTLVTVSS VL: QSALTQPRSVSGSPGQSVTISCTGTSSSVGDSIYVSWYQQHPGKAPKLMLYDVTKRPSGVPDRFSGSKSGNTASLTISGLQAEDEADYYCCSYAGTDTLFGGGTKVTVLG
